# Source: the supplement of paper PMC11865577
# How the values were obtained:
# Test in all cases: pull-down binding Z-score (relative to library population); higher = stronger binding
# [1] = test system: TO-N3-2 (biotin conjugate); settings: RNA library: Library-2
# In short: (§1)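 Streptavidin beads with 100 pmol of biotin-conjugated small molecule were incubated for 60 min at 25 °C with 1 μg of heat-folded Cy5- or Cy3-end-labelled RNA library in phosphate/NaCl/KCl buffer. Bound RNA was eluted in hot SDS after three washes and hybridised to a DNA barcode microarray at 55.5 °C for 20 h. Each binding score is a library-referenced Z-score, computed after beads-only subtraction and a trimmed mean of barcoded replicate probes.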
# [2] = test system: TO-3-N3 (biotin conjugate); settings: RNA library: Library-2
# In short: as §1
# TO-N3 (biotin conjugate) = settings: RNA library: Library-2
# In short: as §1
# [3] = test system: G-clamp-N3 (biotin conjugate); settings: RNA library: Library-1 (pre-miRNA loops + repeats)
# In short: as §1
# [4] = test system: TO-3-N3-2 (biotin conjugate); settings: RNA library: Library-2
# In short: as §1
Sequence,pull-down binding Z-score [1],pull-down binding Z-score [2],pull-down binding Z-score (TO-N3 (biotin conjugate)),pull-down binding Z-score [3],pull-down binding Z-score [4]
AUAGUUUUAGGGUCAUACCCCAUCUUGGAGAUAACUAU [hsa-let-7f-2],-0.745,-0.384,-0.497,-1.63,0.00457
UGGGAGGUAAGAGCUCUUCACCCUUCA [hsa-mir-197],0.638,-0.46,-0.119,-0.817,-0.132
UGUCAUUACUUUUAAUGGUA [hsa-mir-548h-1],-1.24,-0.328,-0.56,-1.35,-0.357
GUGCACUUCAUUUACGAUGUAG [hsa-mir-1193],0.478,0.515,0.741,-0.679,0.167
GGCAGGUGCCUCCGUGUUGCCGAACCCUCCU [hsa-mir-6761],1.74,0.358,0.998,-0.447,0.116
GACCCCCAUGCACCCCUGUGGGCCCCUGGCAUC [hsa-mir-1257],1.21,0.219,0.727,-1.71,-0.0626
CCAUGGUGUGCUCUGAUCCCCCUGUGG [hsa-mir-6848],0.49,0.35,0.592,-0.373,0.0413
GAGCCUGUCACAUCUCCAGACUC [hsa-mir-3925],0.208,0.0173,-0.15,-1.04,-0.227
CAGUGUUAGCUCCAGAAGCAUUG [hsa-mir-3170],0.644,0.0378,0.171,1.14,-0.107
GCUUCUCUUUCUCACCAGCAGC [hsa-mir-4467],-0.0165,-0.543,-0.461,-1.87,0.152
UGCUUCAGUUUCACUCCAAGCA [hsa-mir-4771-2_4771-1],-0.141,-0.0351,-0.204,-0.932,-0.126
CGAGGUGG [hsa-mir-4302],0.675,0.954,0.973,-0.91,-0.0533
UUUGGCUGCCAAAAGAAAUGGCCAAA [hsa-mir-548at],-0.668,-0.656,-0.547,-0.71,-0.331
CUGAGCUGGGUACUGCCUGUUCAG [hsa-mir-589],0.0632,0.697,0.518,0.263,0.311
AGCCUCCAAACCUGUAGACAGGGUCAUGCAGUACUAGGGGCGAG [hsa-mir-4478],0.966,-0.0187,0.546,-0.233,0.175
UAAUAACUGACAAACAGACAAUUG [hsa-mir-4774],-0.303,-0.343,-0.376,-0.873,-0.145
AGGUGCUAGGUCGGCCUCGGC [hsa-mir-5787],1.47,0.284,1.01,1.28,0.351
UCUUUGGUAAUAAGGUUUGGCAAAGA [hsa-mir-576],-0.0599,1.04,0.862,1.47,0.625
GUGGCCUUGGACAAGCCUCUUGGUUAC [hsa-mir-4672],0.885,-0.457,-0.141,-0.419,-0.502

Sequence,pull-down binding Z-score [1],pull-down binding Z-score [2],pull-down binding Z-score (TO-N3 (biotin conjugate)),pull-down binding Z-score [3],pull-down binding Z-score [4]
UGUUGGGGGGACA [hsa-mir-4262],0.707,2.24,1.67,-0.216,1.63
UGGUUACGUGUUUGAUGGUUAAUCA [hsa-mir-376a-2],-0.0517,-0.155,-0.0926,1.55,-0.0388
CAGUCCUGAGAUGCAGGGACUG [hsa-mir-4799],-0.727,-0.626,-0.644,0.166,-0.531
UAGAUGAAUAAAUGAAUGACUCAUCA [hsa-mir-545],-0.21,-0.346,-0.414,-0.383,0.146
UAGAUACUCAGGAGGGUGAGUAUCUA [hsa-mir-5689],-0.726,-0.511,-0.797,1.64,-0.33
UUGUUCGUUGCAUUUUUAGGAACAA [hsa-mir-3613],-1.23,-1.11,-1.52,1.4,-0.623
UUUUGCAGUUUUUUUAAGUAAUUGCAAAA [hsa-mir-548f-3],-0.904,-0.492,-0.812,0.0351,-0.385
UUUCUGUUGUCUAAAAGAAAAGAAA [hsa-mir-527],-0.575,-0.325,-0.383,0.0533,-0.186
GCUGAGGUUGCGUUGACGCUCGC [hsa-mir-1292],1.17,0.0445,0.384,0.447,-0.0926
UCAAACAAGUUUCCAAAUUGUUUGA [hsa-mir-488],-1.02,0.554,0.194,-0.178,-0.496
CUGUGGUGGCUGCUUAUGCACCACGG [hsa-mir-105-2],-0.626,0.62,0.363,1.15,-0.102
GGAUUUGCUUCCUGUCACAAAUCA [hsa-mir-23a],-0.188,0.391,0.271,-1.51,-0.241
AGUAUGGAUUAAAUUUAUAUUUUCCUCGAUACU [hsa-mir-8084],-0.547,0.413,0.316,0.482,0.212
CAGGAGUGGACACCUG [hsa-mir-1246],-0.454,-0.0928,-0.198,-0.505,-0.238
GACUUGAGAUUAUAGUC [hsa-mir-3685],-0.546,0.268,-0.0763,-0.369,-0.13
UUCAUGUUCACUGAAAGGUAGAUUUUAAAAACAUGAA [hsa-mir-4790],-0.575,-0.15,-0.371,-0.0488,0.268
UCGGCACUAUUGUGACUGU [hsa-mir-7855],0.0889,0.693,0.611,-0.0938,-0.16
UGGAGGUGAUGGAUGUUUUCCUCCG [hsa-mir-671],-0.359,-0.607,-0.717,-0.238,-0.398
ACCACUGUGAAGACAGUAAAAUGUACAGUGGU [hsa-mir-597],-1.1,-0.324,-0.598,0.0112,-0.0901
